T1: soluble human TNFR2 (human, UniProt P20333 23-257)
T1 construct: also called soluble TNFR2
T1 sequence (looked up): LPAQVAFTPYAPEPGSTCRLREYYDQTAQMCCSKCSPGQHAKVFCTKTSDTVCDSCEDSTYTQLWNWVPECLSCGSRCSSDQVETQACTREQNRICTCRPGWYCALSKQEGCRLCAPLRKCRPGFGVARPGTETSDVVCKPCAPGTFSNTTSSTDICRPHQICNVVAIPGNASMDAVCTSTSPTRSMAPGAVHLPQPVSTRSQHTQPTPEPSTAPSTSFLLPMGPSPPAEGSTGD

T2: human TNFR2 on cells (human, UniProt P20333 23-461)
T2 construct: whole, on cells; also called TNFR2 on Jurkat clone H6; human TNFR2 on CD4+ and CD8+ T cells
T2 sequence (looked up): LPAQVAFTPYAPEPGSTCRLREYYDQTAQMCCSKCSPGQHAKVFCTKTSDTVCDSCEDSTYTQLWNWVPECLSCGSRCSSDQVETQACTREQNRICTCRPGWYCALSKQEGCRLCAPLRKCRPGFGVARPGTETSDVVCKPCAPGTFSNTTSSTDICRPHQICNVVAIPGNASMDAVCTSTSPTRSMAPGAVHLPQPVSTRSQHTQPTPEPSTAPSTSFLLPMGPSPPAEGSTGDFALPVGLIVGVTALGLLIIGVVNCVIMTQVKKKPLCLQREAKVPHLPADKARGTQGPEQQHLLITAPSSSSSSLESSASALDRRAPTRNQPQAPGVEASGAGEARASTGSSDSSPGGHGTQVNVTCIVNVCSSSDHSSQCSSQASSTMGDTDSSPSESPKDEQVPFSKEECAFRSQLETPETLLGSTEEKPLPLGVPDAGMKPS


Experiments:
soluble human TNFR2 [1] = target: T1, soluble human TNFR2; test: competition ELISA, plate-bound soluble human TNFR2, biotinylated TNFα as competitor
Method: (§1) Soluble human TNFR2 (Sino Biological, 10417-H08H) or cynomolgus TNFR2 (Sino Biological, 90102-C08H) was coated on Nunc-Immuno™ plates at 0.1 μg/ml, 0.5 ug/ml, 1 μg/ml, and 5 μg/ml. […] Plates were developed using TMB and stopped with 3 M HCl.
IC₅₀ values are reported in nM.

human TNFR2 on cells = target: T2, human TNFR2 on cells; test: flow cytometry on human PBMC, antibody at 10 ug/mL, anti-human Fc-PE secondary
Method: The following day 0.3×10⁶ PBMC were counted and washed with PBS (Lonza). PBMCs were resuspended in Fixable Viability Stain 575V (BD) diluted 1:1,000 in PBS and incubated for 10 minutes. PBMCs were then washed twice in PBS to remove residual viability stain. PBMCs were then resuspended in Horizon Brilliant Stain Buffer (BD) with 10 uL per test of human Fc receptor binding inhibitor (eBioscience) and incubated on ice for 20 minutes to block Fc receptors. […] PBMCs were incubated 20 minutes on ice and then washed three times with 2% FBS PBS. To visualize TNFR chimeric antibody binding, PBMCs were resuspended in goat anti-human Fc-PE F(ab′)₂ secondary reagent (Jackson ImmunoResearch) diluted 1:200 in 2% FBS PBS and incubated on ice for 20 minutes. Cells were then washed three times in 2% FBS PBS and resuspended in 200 uL 2% FBS PBS for flow cytometry analysis using a BD FACS Celesta instrument and FACS Diva software. T cells were analyzed for chimeric TNFR2 binding by gating on viable cells defined as lymphocytes using forward and side scatter and as T cells by anti-CD3 staining. CD4⁺ and CD8⁺ subsets were identified by commercially available specific antibody conjugates.

soluble human TNFR2 [2] = target: T1, soluble human TNFR2; test: competition ELISA: plate-bound soluble human TNFR2, competitor biotinylated TNFα, streptavidin-HRP, A450
Method: as §1

| Average Relative IC50 (soluble human TNFR2 [1]) | % CD4^+ ab^+ Donor 1 (human TNFR2 on cells) | % CD4^+ ab^+ Donor 2 (human TNFR2 on cells) | % CD8^+ ab^+ Donor 1 (human TNFR2 on cells) | % CD8^+ ab^+ Donor 2 (human TNFR2 on cells) | IC50 (soluble human TNFR2 [2]) | Binder |
| --- | --- | --- | --- | --- | --- | --- |
| 2.91 nM | 47.6% | 38.3% | 24.3% | 18.9% | 7.53 nM | chimeric SBT-002 (antibody, V domains shown, also called chSBT-002) VH: QVTLKESGPGILQPSQTLSLTCSFSGFSLSTSGMGVGWIRQPSGKGLEWLAHIWWDDDKFYNPSLKSQLTISKDTSRNQVFLKLTSVVTADTATYYCARLTGTRYFDYWGQGTTLTVSS VL: DVQMTQSPSSLSASLGGKVTITCKASQDINKFIAWYQHKPGKGPRLLIHYTSTLQPGIPSKFSGSGSGRDYSFSISNLEPEDIATYYCLQYGNLWTFGGGTKLEIT |
| 5.07 nM | 38.4% | 26.4% | 18.8% | 16.1% | 16.7 nM | chimeric SBT-004 (antibody, V domains shown, VH fused to a human IgG1 Fc domain; also called chSBT-004) VH: EVQLQQSGPEVGRPGSSVKISCKASGYTFTDYIMHWVKQSPGQGLEWIGWVDPEYGSTDYAEKFKKKATLTADTSSNTAYIQLSSLTSEDTATYFCARDDGSYSPFDYWGQGVMVTVSS VL: DIQMTQSPPSLSASLGDKVTITCQASQNINKYIAWYQQKPGKAPRLLIRYTSTLESGTPSRFSGSGSGRDYSFSISNVESEDIASYYCLQYVNLLTFGAGTKLEIK |

Source: US20190202925A1 (OPI VI IP HOLDCO, published 2019)
